{"source": "paper PMC3680494", "about": "“Genomics-Guided Analysis of NAD Recycling Yields Functional Elucidation of COG1058 as a New Family of Pyrophosphatases” (PLoS ONE, 2013)", "proteins": {"B1": {"name": "AtCOG1058 (Agrobacterium fabrum str. C58) (protein)", "chain": "MSNPSSTSSVVTAAMLAIGDELLSGRTKDKNIGHLADVLTMSGIDLKEVRIVADEEESIVEALNALRSRYDYVFTSGGIGPTHDDITADAISAAFGLPCEHDAEALRLLGDMYRVREMEFTEARKRMARMPKGAAHIANPVSVAPGFVIGNVYVMAGVPQVFQAMLDNVMPTLRTGAKVMSQAVRSPYGEGDIGTPLTAIQKAHPETSIGSYPKYDGQRFSTEIVVRARDAGLLKAATEAVAAMIEAIGQEKQLAASKGDATA", "notes": "stand-alone COG1058 protein cloned from genomic DNA in pET100/D-TOPO; N-terminal His tag; E. coli BL21(DE3); HisTrap purified"}}, "substrate": "Nc1ncnc2c1ncn2[C@@H]1O[C@H](CO[P@](=O)(O)O[P@](=O)(O)OC[C@H]2O[C@@H](n3cnc4c(N)ncnc43)[C@H](O)[C@@H]2O)[C@@H](O)[C@H]1O", "experiment": "HPLC of mononucleotide formed, Michaelis-Menten fit", "type": "biochemical, Agrobacterium fabrum", "conditions": "pH 7.5 (100 mM TRIS/HCl), 1 mM CoCl2, 100 mM KCl, 37°C", "data": [{"protein": "B1", "values": [{"measurement": "Km", "result": "210 ± 22", "unit": "µM"}, {"measurement": "kcat", "result": "5.6 ± 0.7", "unit": "s⁻¹"}]}]}
